Measurements: article PMC5497066, “GroEL actively stimulates folding of the endogenous substrate protein PepQ” (Nature Communications, 2017)
Substitutions are numbered along the chain they refer to. In names and notes the source's numbering stands. Blank lines part the entries; values can stand above or below the binder they belong to.

How the values were obtained:
[1] = molecular target: single-ring truncation mutant, SRΔ526 (E. coli); test: cell-based or functional assay
[2] = molecular target: T1, wild-type GroEL tetradecamer (E. coli, UniProt P0A6F5 1-548); test: cryo-EM structure; acid-urea denatured PepQ (7 μM final) titrated into GroEL or Δ526 (8 μM tetradecamers) in TKM buffer, no nucleotide, room temperature 5 min; asymmetric 3D classification and refinement; conditions: both partners purified
T1 construct: GroEL (Hsp60 chaperonin), E. coli, homo-oligomer of 14 subunits of 57 kDa in two seven-membered rings; also called WT; full-length GroEL; source: E. coli BL21, purified (anion exchange, ammonium sulfate precipitation, Affi Blue Gel); copies: 14

[3] = molecular target: T2, asymmetric wild-type GroEL-GroES-ADP complex (E. coli, UniProt P0A6F5 1-548; P0A6F9 1-97); test: protease protection (encapsulation); denatured PepQ-24F (100 nM) bound to wild-type or Δ526 GroEL-GroES-ADP bullets (200 nM) or full-length or Δ526 single-ring GroEL (300 nM) with GroES (600 nM); single turnover with ATP (2 mM), quenched after 10 s; unencapsulated PepQ digested with Proteinase K; SDS-PAGE, fluorescein scan; conditions: both partners purified
T2 construct: GroEL, E. coli, wild type; GroES, ring-shaped co-chaperonin, E. coli; GroES caps one ring; also called GroEL-GroES-ADP bullets; source: GroEL from E. coli BL21 and GroES from E. coli BL21(DE3), each purified; complex formed beforehand with ADP; copies: 14 +

[4] = molecular target: T1, wild-type GroEL tetradecamer; test: fluorescence correlation spectroscopy; acid-urea denatured PepQ-24TMR (2 nM) with GroEL (1 μM) in TKM buffer (50 mM Tris-HCl, pH 7.4, 50 mM KOAc, 10 mM Mg(OAc)2, 2 mM DTT); shift in diffusion time; conditions: both partners purified

observed folding rate constant of PepQ by recovery of enzymatic activity, bound to SRΔ526 (300 nM) and refolded with GroES (600 nM) and ATP (2 mM) [1]: 0.332 min⁻¹ | binding result [2]: binds
B1: wild type E. coli PepQ (enzyme, UniProt P21165 1-443, looked up)
chain: MESLASLYKNHIATLQERTRDALARFKLDALLIHSGELFNVFLDDHPYPFKVNPQFKAWVPVTQVPNCWLLVDGVNKPKLWFYLPVDYWHNVEPLPTSFWTEDVEVIALPKADGIGSLLPAARGNIGYIGPVPERALQLGIEASNINPKGVIDYLHYYRSFKTEYELACMREAQKMAVNGHRAAEEAFRSGMSEFDINIAYLTATGHRDTDVPYSNIVALNEHAAVLHYTKLDHQAPEEMRSFLLDAGAEYNGYAADLTRTWSAKSDNDYAQLVKDVNDEQLALIATMKAGVSYVDYHIQFHQRIAKLLRKHQIITDMSEEAMVENDLTGPFMPHGIGHPLGLQVHDVAGFMQDDSGTHLAAPAKYPYLRCTRILQPGMVLTIEPGIYFIESLLAPWREGQFSKHFNWQKIEALKPFGGIRIEDNVVIHENNVENMTRDLKLA
notes: PepQ (Xaa-Pro dipeptidase, prolidase), E. coli, monomer of about 50 kDa; native form is a homodimer; also called prolidase; metalloprotease PepQ; source: E. coli BL21(DE3), purified (anion exchange, ammonium sulfate, Phenyl Sepharose)

binding result [3]: binds
B2: PepQ-24F (enzyme, E. coli, UniProt P21165 1-443, looked up)
chain: B1 chain with A24C
modifications: fluorescein (5-iodoacetamidofluorescein) on the cysteine at position 24
notes: PepQ, E. coli, with the surface-exposed cysteine A24C; also called Fluorescein-labelled PepQ; A24C PepQ labelled with fluorescein; source: E. coli BL21(DE3), purified, labelled and re-purified (PD-10, MonoQ)

binding result [4]: binds
B3: PepQ-24TMR (enzyme, E. coli, UniProt P21165 1-443, looked up)
chain: B1 chain with A24C
modifications: tetramethylrhodamine (tetramethylrhodamine-5-iodoacetamide) on the cysteine at position 24
notes: PepQ, E. coli, with the surface-exposed cysteine A24C in the first helix of the N-terminal domain; also called PepQ-TMR; A24C PepQ labelled with tetramethylrhodamine; source: E. coli BL21(DE3), purified, labelled and re-purified (PD-10, MonoQ)
